Blank lines part the entries; values can stand above or below the binder they belong to.
Target: T1, human Tetraspanin-3 (TSPAN3) (human, UniProt O60637 1-253)
T1 construct: whole, on cells; also called human TSPAN3; cell surface expressed TSPAN3
Assay: flow cytometry (FACS) on TSPAN3-expressing cells
Source text: Using the hybridoma technology, i.e., fusing the antibody-producing B-cells harvested from the immunized mice with myeloma cells, two hybridoma fusion libraries were generated three days later (one from the reactive NZBW mouse and one from the two pooled reactive CD-1 mice), and then retested for reactivity to surface-expressed human TSPAN3.

T1 sequence (O60637 whole entry): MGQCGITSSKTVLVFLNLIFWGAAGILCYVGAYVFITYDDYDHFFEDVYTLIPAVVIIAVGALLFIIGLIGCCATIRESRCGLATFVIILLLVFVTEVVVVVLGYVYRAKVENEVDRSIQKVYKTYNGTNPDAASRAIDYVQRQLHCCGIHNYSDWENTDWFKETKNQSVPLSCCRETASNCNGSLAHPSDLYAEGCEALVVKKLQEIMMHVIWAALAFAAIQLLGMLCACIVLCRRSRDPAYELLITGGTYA

B3: Anti-TSPAN3 M3 clone monoclonal antibody (antibody, V domains shown)
VH: QIQLVQSGPELKKPGETVKISCKASGYTFTTYGMSWVKQAPGKGLKWMGWINTYSGVPTYADDFKGRFAFSLETSASTAYLQINNLKNEDTATYFCARSHYSNFYAMDYWGQEPQSP
VL: DIVMTQSHKFMSTSVGDRVSITCKASQDVGTAVAWYQQKPGQSPKLLIYWASTRHTGVPDRFTGSGSGTDFTLTISNVQSEDLADYFCQQYSSYPLTFGAGTKLELK
notes: Mouse hybridoma clone; isotype IgM, kappa; also called Clone 3 (TSPAN3-C - M3)
% Gated: 60.7%
Median Fluorescence Intensity (MFI): 284 MFI

B4: Anti-TSPAN3 M1 clone monoclonal antibody (antibody, IgG1, V domains shown)
VH: QVQLQQPGAELVKPGASVKLSCKASGYTFTSYWMHWVKQRPGQGLEWIGMIHPNSGSPNYNERFKSKATLTVDKSSSTAYMQLSSLTSEDSAVYFCARWGDGYHRYFDVWGTGTTVTVSS
VL: DIQMTQSPASLSASVGETVTITCRASGNIHNYLAWYQQKQGKSPQLLVYNAKTLADGVPSRFSGSGSGTQYSLKINSLQPEDFGSYYCQHFWSTPPYTFGGGTKLEIK
notes: Mouse hybridoma clone (CD-1 library); isotype IgG1, kappa; also called Clone 1 (TSPAN3-C - M1)
% Gated: 59%
Median Fluorescence Intensity (MFI): 290 MFI

The next lines start with the values.

% Gated: 73%
Median Fluorescence Intensity (MFI): 529 MFI
B1: Anti-TSPAN3 M5 clone monoclonal antibody (antibody, IgG2b, V domains shown)
VH: EVQLQQSGPELVKPGASVKMSCKASGYTFTDFYMHWVKQSHGRSLEWIGYIYPHNGFTKYNQSFMGKATLTVNKSSNTAYMELRSLTSEDSAVYYCARRYGDYWGQGISVTVSS
VL: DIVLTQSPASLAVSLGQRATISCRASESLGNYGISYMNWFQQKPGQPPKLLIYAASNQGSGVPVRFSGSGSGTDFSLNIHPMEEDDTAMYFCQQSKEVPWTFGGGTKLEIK
notes: Mouse hybridoma clone; isotype IgG2b, kappa; also called Clone 5 (TSPAN3-C - M5)

% Gated: 69.5%
Median Fluorescence Intensity (MFI): 308 MFI
B2: Anti-TSPAN3 M6 clone monoclonal antibody (antibody, IgG2b, V domains shown)
VH: B1 VH
VL: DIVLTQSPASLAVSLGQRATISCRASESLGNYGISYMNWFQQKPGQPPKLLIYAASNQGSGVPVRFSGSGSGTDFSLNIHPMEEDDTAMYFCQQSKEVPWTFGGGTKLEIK
notes: Mouse hybridoma clone; isotype IgG2b, kappa; also called Clone 6 (TSPAN3-C - M6)

From patent publication US20230391865A1 (University of California, published 2023)
